This test concerns the target SCCA1 recombinant protein expressed on transfected HepG2 and CHO cells (human).

Consider “HBV viral particles present in the serum of patients with acute hepatitis B”, for which the HBV-DNA values of transfected cell lines relative to control cell lines turned out to be 8 times.

The values are drawn from patent publication US6344362.
